Read-outs that look alike come from different tables or passages of the source. Ends that are not written are not given here. * marks the point of attachment. Azidoacetyl = [N-]=[N+]=NCC(=O)*

Data on eleven molecules can be found in patent US20230338555A1 (IONIS PHARMACEUTICALS, published 2023).

Experiment in all cases: cell-based or functional assay
Assay [1] has as its target T1, human sortilin stably expressed on HEK 293 cells (HEK-SORT1 cells) (human, UniProt Q99523 78-831).
T1 sequence (looked up): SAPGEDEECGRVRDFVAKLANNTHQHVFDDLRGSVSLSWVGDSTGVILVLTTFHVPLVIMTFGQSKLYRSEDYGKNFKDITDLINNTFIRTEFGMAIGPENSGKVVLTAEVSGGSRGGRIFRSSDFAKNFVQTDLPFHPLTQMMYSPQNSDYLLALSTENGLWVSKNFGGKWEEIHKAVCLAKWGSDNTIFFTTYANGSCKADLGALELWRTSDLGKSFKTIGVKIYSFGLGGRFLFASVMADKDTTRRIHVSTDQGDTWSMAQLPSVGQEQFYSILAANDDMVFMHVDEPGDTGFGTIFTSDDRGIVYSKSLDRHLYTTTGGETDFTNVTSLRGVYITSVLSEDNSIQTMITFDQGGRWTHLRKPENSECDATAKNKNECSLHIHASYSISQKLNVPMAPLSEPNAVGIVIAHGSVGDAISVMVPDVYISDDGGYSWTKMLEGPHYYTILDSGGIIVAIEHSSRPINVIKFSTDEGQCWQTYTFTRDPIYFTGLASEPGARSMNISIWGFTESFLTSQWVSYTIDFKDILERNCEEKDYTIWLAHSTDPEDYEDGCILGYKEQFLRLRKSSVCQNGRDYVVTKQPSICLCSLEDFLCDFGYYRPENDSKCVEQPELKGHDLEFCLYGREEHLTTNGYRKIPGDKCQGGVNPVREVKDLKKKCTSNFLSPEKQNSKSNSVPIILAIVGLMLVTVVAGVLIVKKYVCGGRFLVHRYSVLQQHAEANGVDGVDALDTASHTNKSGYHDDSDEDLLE

Assay [2] addresses T1, human sortilin stably expressed on HEK …. The source holds these as a separate data set.
Assay [3] shares this target. This is another data set of the same source.
For assay [4] the target is unchanged. The source holds these as a separate data set.
The target is the same in assay [5]. The source holds these as a separate data set.

B1: Compound No. 1270697, … peptide conjugated to 20-mer MOE oligonucleotide with 3'-Cy3 (peptide)
peptide: K(Azidoacetyl)LYENKPKKPYIL
modifications: not fully specified; printed as 2-azido-acetyl-KLYENKPKKPYIL; also: azide joined via triazolo-BCN carbamate/6-aminohexanol linker to 5' end of 20-mer MOE oligonucleotide CCAGGCTGGTTATGACTCAG (uniform MOE, phosphodiester, 3'-Cy3)
Take B1: in assay [1], the “Mean Fluorescence Intensity (MFI), uptake 37C-4C, at 12 nM” value (shortened to “Mean Fluorescence Intensity … at 12 nM”) turned out to be 39 MFI; the “Mean Fluorescence Intensity (MFI), uptake 37C-4C, at 37 nM” value (shortened to “Mean Fluorescence Intensity … at 37 nM”) came out at 51 MFI; the “Mean Fluorescence Intensity (MFI), uptake 37C-4C, at 111 nM” value (shortened to “Mean Fluorescence Intensity … at 111 nM”) is 86 MFI; the “Mean Fluorescence Intensity (MFI), uptake 37C-4C, at 333 nM” value (“Mean Fluorescence Intensity … at 333 nM” below) was 185 MFI. In addition, in assay [1], the “Mean Fluorescence Intensity (MFI), uptake 37C-4C, at 1000 nM” value (from here on “Mean Fluorescence Intensity … at 1000 nM”) was 474 MFI.

B2: Compound No. 1270696, XLYENKPRKPYIL peptide conjugated to 20-mer MOE oligonucleotide with 3'-Cy3 (peptide)
peptide: KLYENKPRKPYIL
modifications: not fully specified (residue 1)
Turning to B2, in assay [1], the “Mean Fluorescence Intensity … at 12 nM” value worked out at 43 MFI; the “Mean Fluorescence Intensity … at 37 nM” value stood at 61 MFI; the “Mean Fluorescence Intensity … at 111 nM” value amounted to 138 MFI; the “Mean Fluorescence Intensity … at 333 nM” value stood at 312 MFI. The “Mean Fluorescence Intensity … at 1000 nM” value in assay [1] was determined as 1100 MFI.

B3: Compound No. 1270698, XLYENKPKRPYIL peptide conjugated to 20-mer MOE oligonucleotide with 3'-Cy3 (peptide)
peptide: XLYENKPKRPYIL
modifications: not fully specified; X at position 1 is 2-azido-acetyl lysine, joined via triazolo-BCN carbamate / 6-aminohexanol linker to 5' end of … (SEQ ID NO 2, uniform MOE, phosphodiester, 3'-Cy3)
As to B3, in assay [1], the “Mean Fluorescence Intensity … at 12 nM” value was 35 MFI; the “Mean Fluorescence Intensity … at 37 nM” value stood at 48 MFI; the “Mean Fluorescence Intensity … at 111 nM” value amounted to 78 MFI; the “Mean Fluorescence Intensity … at 333 nM” value stood at 155 MFI. In addition, the “Mean Fluorescence Intensity … at 1000 nM” value in assay [1] amounted to 394 MFI.

B4: Compound 17-AE-9199, Cy3-labeled [SO5P]LYEN[azido-acetyl-K]PRRPYIL peptide (peptide)
peptide: LYENXPRRPYIL
modifications: not fully specified; position 1 is SO5P (5-oxoproline); internal lysine (LYEN-K) carries the azido-acetyl group joined to Cy3-BCN reagent (Cy3 label)
Regarding B4, in assay [2], the “Mean Fluorescence Intensity … at 12 nM” value worked out at 174 MFI; the “Mean Fluorescence Intensity … at 37 nM” value came to 378 MFI; the “Mean Fluorescence Intensity … at 111 nM” value stood at 825 MFI; the “Mean Fluorescence Intensity … at 333 nM” value worked out at 1090 MFI. Also, the “Mean Fluorescence Intensity … at 1000 nM” value in assay [2] worked out at 1220 MFI.

B5: Compound No. 1252444, XAGSIKPPPAGSSPGLYENKPRRPYIL peptide conjugated to 20-mer MOE oligonucleotide with 3'-Cy3 (peptide)
peptide: KAGSIKPPPAGSSPGLYENKPRRPYIL
modifications: not fully specified (residue 1); also: X side chain clicked via BCN (triazole) and 6-aminohexanol linker to 5' end of oligonucleotide CCAGGCTGGTTATGACTCAG (MOE, 3'-Cy3)
On to B5, for which, in assay [3], the “Mean Fluorescence Intensity (MFI), uptake 37C-4C, at 7 nM” value (“Mean Fluorescence Intensity … at 7 nM” below) was 90 MFI; the “Mean Fluorescence Intensity (MFI), uptake 37C-4C, at 22 nM” value (shortened to “Mean Fluorescence Intensity … at 22 nM”) worked out at 208 MFI; the “Mean Fluorescence Intensity (MFI), uptake 37C-4C, at 76 nM” value (from here on “Mean Fluorescence Intensity … at 76 nM”) was determined as 609 MFI; the “Mean Fluorescence Intensity (MFI), uptake 37C-4C, at 260 nM” value (“Mean Fluorescence Intensity … at 260 nM” for short) was determined as 1530 MFI. Moreover, in assay [3], the “Mean Fluorescence Intensity (MFI), uptake 37C-4C, at 882 nM” value (from here on “Mean Fluorescence Intensity … at 882 nM”) amounted to 2510 MFI and the “Mean Fluorescence Intensity (MFI), uptake 37C-4C, at 3000 nM” value (from here on “Mean Fluorescence Intensity … at 3000 nM”) worked out at 3390 MFI.

B6: Compound No. 1252445, XAGMSGASAGLYENKPRRPYIL peptide conjugated to 20-mer MOE oligonucleotide with 3'-Cy3 (peptide)
peptide: KAGMSGASAGLYENKPRRPYIL
modifications: not fully specified (residue 1); also: X side chain clicked via BCN (triazole) and 6-aminohexanol linker to 5' end of oligonucleotide CCAGGCTGGTTATGACTCAG (MOE, 3'-Cy3)
In the case of B6, in assay [3], the “Mean Fluorescence Intensity … at 7 nM” value was determined as 55 MFI; the “Mean Fluorescence Intensity … at 22 nM” value was determined as 85 MFI; the “Mean Fluorescence Intensity … at 76 nM” value is 306 MFI; the “Mean Fluorescence Intensity … at 260 nM” value was found to be 868 MFI. For the same molecule, in assay [3], the “Mean Fluorescence Intensity … at 882 nM” value amounted to 1950 MFI and the “Mean Fluorescence Intensity … at 3000 nM” value was found to be 2880 MFI.

B7: 1162756 duplex (Compound No. 1162756 complexed to complementary MOE oligonucleotide …) (peptide)
peptide: KPPPAGSSPGLYENKPRRPYIL
modifications: not fully specified (residue 1); also: oligonucleotide hybridized to complementary MOE strand CTGAGTCATAACCAGCCTGG (duplex)
Regarding B7, in assay [4], the “Mean Fluorescence Intensity … at 12 nM” value turned out to be 41 MFI; the “Mean Fluorescence Intensity … at 37 nM” value worked out at 52 MFI; the “Mean Fluorescence Intensity … at 111 nM” value was determined as 71 MFI; the “Mean Fluorescence Intensity … at 333 nM” value stood at 130 MFI. For the same molecule, in assay [4], the “Mean Fluorescence Intensity … at 1000 nM” value was 278 MFI.

B8: Compound No. 1091165, [SO5P]-LYEN[azido-acetyl-K]PRRPYIL peptide conjugated to 20-mer MOE oligonucleotide with 3'-Cy3 (peptide)
peptide: LYENXPRRPYIL
modifications: not fully specified; position 1 is SO5P (5-oxoproline); internal lysine (LYEN-K) side chain azido-acetyl joined via triazolo-BCN carbamate / 6-aminohexanol linker to 5' end of … (SEQ ID NO 2, uniform MOE, phosphodiester, 3'-Cy3)
As to B8, in assay [2], the “Mean Fluorescence Intensity … at 12 nM” value came out at 45 MFI; the “Mean Fluorescence Intensity … at 37 nM” value worked out at 53 MFI; the “Mean Fluorescence Intensity … at 111 nM” value is 60 MFI; the “Mean Fluorescence Intensity … at 333 nM” value was 73 MFI. In addition, the “Mean Fluorescence Intensity … at 1000 nM” value in assay [2] stood at 97 MFI.

B9: Compound No. 1252443, XPAPSGPSPGLYENKPRRPYIL peptide conjugated to 20-mer MOE oligonucleotide with 3'-Cy3 (peptide)
peptide: KPAPSGPSPGLYENKPRRPYIL
modifications: not fully specified (residue 1); also: X side chain clicked via BCN (triazole) and 6-aminohexanol linker to 5' end of oligonucleotide CCAGGCTGGTTATGACTCAG (MOE, 3'-Cy3)
Take B9: in assay [3], the “Mean Fluorescence Intensity … at 7 nM” value is 53 MFI; the “Mean Fluorescence Intensity … at 22 nM” value was 130 MFI; the “Mean Fluorescence Intensity … at 76 nM” value turned out to be 413 MFI; the “Mean Fluorescence Intensity … at 260 nM” value is 1230 MFI. In assay [3], the “Mean Fluorescence Intensity … at 882 nM” value turned out to be 2430 MFI and the “Mean Fluorescence Intensity … at 3000 nM” value came out at 3390 MFI.

B10: Compound No. 1215812, CPPPAGSSPGLYENKPRRPYIL peptide conjugated by a maleimide linker to 20-mer MOE oligonucleotide with 3'-Cy3 (peptide)
peptide: CPPPAGSSPGLYENKPRRPYIL
modifications: not fully specified
For B10, in assay [5], the “Mean Fluorescence Intensity … at 7 nM” value amounted to 47 MFI; the “Mean Fluorescence Intensity … at 22 nM” value was determined as 69 MFI; the “Mean Fluorescence Intensity … at 76 nM” value turned out to be 205 MFI; the “Mean Fluorescence Intensity … at 260 nM” value amounted to 675 MFI. In assay [5], the “Mean Fluorescence Intensity … at 882 nM” value turned out to be 1810 MFI and the “Mean Fluorescence Intensity … at 3000 nM” value turned out to be 3140 MFI.

B11: Compound 17-AH-1492, Cy3-labeled extended neurotensin (eNT, …) (peptide)
peptide: KPPPAGSSPGLYENKPRRPYIL
modifications: not fully specified (residue 1); also: Cy3 label attached by BCN click to the azide
Turning to B11, in assay [4], the “Mean Fluorescence Intensity … at 12 nM” value is 108 MFI; the “Mean Fluorescence Intensity … at 37 nM” value was 334 MFI; the “Mean Fluorescence Intensity … at 111 nM” value worked out at 763 MFI; the “Mean Fluorescence Intensity … at 333 nM” value was 1100 MFI. The “Mean Fluorescence Intensity … at 1000 nM” value in assay [4] worked out at 1360 MFI. In assay [2], the “Mean Fluorescence Intensity … at 12 nM” value is 167 MFI; the “Mean Fluorescence Intensity … at 37 nM” value turned out to be 390 MFI; the “Mean Fluorescence Intensity … at 111 nM” value stood at 724 MFI; the “Mean Fluorescence Intensity … at 333 nM” value was 1030 MFI. Moreover, the “Mean Fluorescence Intensity … at 1000 nM” value in assay [2] came out at 1260 MFI. Moreover, in assay [3], the “Mean Fluorescence Intensity … at 7 nM” value stood at 84 MFI; the “Mean Fluorescence Intensity … at 22 nM” value was found to be 266 MFI; the “Mean Fluorescence Intensity … at 76 nM” value amounted to 593 MFI; the “Mean Fluorescence Intensity … at 260 nM” value came to 869 MFI. Further, in assay [3], the “Mean Fluorescence Intensity … at 882 nM” value came out at 1180 MFI and the “Mean Fluorescence Intensity … at 3000 nM” value was 1440 MFI.
